# T1: FcγRIIa H (human, UniProt P12318 34-217)
# T1 construct: extracellular domain; also called FcgRIIa H; 2aH; not shown: His tag at the C terminus
# T1 sequence (looked up): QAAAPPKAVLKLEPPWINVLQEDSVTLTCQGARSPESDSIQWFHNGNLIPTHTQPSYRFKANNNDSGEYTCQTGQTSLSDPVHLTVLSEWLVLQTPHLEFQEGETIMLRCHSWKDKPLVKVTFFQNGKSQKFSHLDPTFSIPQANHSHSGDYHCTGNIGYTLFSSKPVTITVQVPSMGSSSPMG
# T2: FcγRIIb (human, UniProt P31994 43-217)
# T2 construct: extracellular domain; also called FcgRIIb; 2b; not shown: His tag at the C terminus
# T2 sequence (looked up): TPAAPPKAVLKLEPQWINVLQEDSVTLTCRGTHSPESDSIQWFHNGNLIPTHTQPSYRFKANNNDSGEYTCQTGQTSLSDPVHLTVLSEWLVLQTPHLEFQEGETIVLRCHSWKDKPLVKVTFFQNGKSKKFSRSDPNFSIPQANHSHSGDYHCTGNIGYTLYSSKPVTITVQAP
# Experiments:
# FcγRIIa H [1] = target: T1, FcγRIIa H; test: SPR (Biacore), FcγR passed over captured antibody; binding amount as % of control GpH7-A5/GpH7-B3/GpL16-k0 (=100)
# Method: (§1) The heterodimerized antibodies He Abs in which one of the H chains was introduced with an alteration were assayed for their binding activities to each activating FcγR and inhibitory FcγR according to the method described in Example 4. […] The activating FcγRs in FIGS. 26, 27, 28, and 29 are FcγRIa, FcγRIIa (R), FcγRIIa (H), and FcγRIIIa, respectively.
# (§2) Analysis of interaction between objective antibody and the FcγR was carried out using Biacore T100 (GE Healthcare). HBS-EP+ (GE Healthcare) was used as the running buffer, and the measurement temperature was set to 25° C. Chips produced by immobilizing the antigen peptide by the amine coupling method to a Series S Sencor Chip CM5 (GE Healthcare), or alternatively, chips produced by allowing preliminarily biotinylated antigen peptides to interact with and immobilize onto a Series S Sensor Chip SA (certified) (GE Healthcare) were used. Antibodies of interest were captured onto an antigen peptide-immobilized chip, and allowed to interact to each FcγR diluted with running buffer. To regenerate and repeatedly use the chip, the antibodies captured on the chip were washed off by reacting 10 mM glycine-HCl, pH 1.5.
# FcγRIIb = target: T2, FcγRIIb; test: as above
# Method: as §1, §2
# FcγRIIa H [2] = target: T1, FcγRIIa H; test: SPR (Biacore); He/Con_2aH divided by He/Con_2b (FcγRIIa H versus FcγRIIb)
# Method: as §1, §2
Binder,He/Con_2aH (FcγRIIa H [1]),He/Con_2b (FcγRIIb),He_2aH/2b (IIaH/IIb) (FcγRIIa H [2]) [ratio]
"GpH7-A5/GpH7-B3 variant A330_14T/GpL16-k0 (antibody, human IgG1, kappa, He Ab: mutation in the GpH7-B3 H chain only) heavy 1: not shown heavy 2: not shown light: DIVMTQSPLSLPVTPGEPASISCQASESLVHSNRNTYLHWYLQKPGQSPQLLIYKVSNRFSGVPDRFSGSGSGTDFTLKISRVEAEDVGVYYCSQNTHVPPTFGQGTKVEIERTVAAPSVFIFPPSDEQLKSGTASVVCLLNNFYPREAKVQWKVDNALQSGNSQESVTEQDSKDSTYSLSSTLTLSKADYEKHKVYACEVTHQGLSSPVTKSFNRGEC","94.5 relative, control = 100","77.9 relative, control = 100",1.21
"GpH7-A5/GpH7-B3 variant I336_20W/GpL16-k0 (antibody, human IgG1, kappa, He Ab: mutation in the GpH7-B3 H chain only) heavy 1: not shown heavy 2: not shown light: DIVMTQSPLSLPVTPGEPASISCQASESLVHSNRNTYLHWYLQKPGQSPQLLIYKVSNRFSGVPDRFSGSGSGTDFTLKISRVEAEDVGVYYCSQNTHVPPTFGQGTKVEIERTVAAPSVFIFPPSDEQLKSGTASVVCLLNNFYPREAKVQWKVDNALQSGNSQESVTEQDSKDSTYSLSSTLTLSKADYEKHKVYACEVTHQGLSSPVTKSFNRGEC","30.9 relative, control = 100","20.3 relative, control = 100",1.52
"GpH7-A5/GpH7-B3 variant A330_18N/GpL16-k0 (antibody, human IgG1, kappa, He Ab: mutation in the GpH7-B3 H chain only) heavy 1: not shown heavy 2: not shown light: DIVMTQSPLSLPVTPGEPASISCQASESLVHSNRNTYLHWYLQKPGQSPQLLIYKVSNRFSGVPDRFSGSGSGTDFTLKISRVEAEDVGVYYCSQNTHVPPTFGQGTKVEIERTVAAPSVFIFPPSDEQLKSGTASVVCLLNNFYPREAKVQWKVDNALQSGNSQESVTEQDSKDSTYSLSSTLTLSKADYEKHKVYACEVTHQGLSSPVTKSFNRGEC","81.6 relative, control = 100","63.7 relative, control = 100",1.28
"GpH7-A5/GpH7-B3 variant P329_03V/GpL16-k0 (antibody, human IgG1, kappa, He Ab: mutation in the GpH7-B3 H chain only) heavy 1: not shown heavy 2: not shown light: DIVMTQSPLSLPVTPGEPASISCQASESLVHSNRNTYLHWYLQKPGQSPQLLIYKVSNRFSGVPDRFSGSGSGTDFTLKISRVEAEDVGVYYCSQNTHVPPTFGQGTKVEIERTVAAPSVFIFPPSDEQLKSGTASVVCLLNNFYPREAKVQWKVDNALQSGNSQESVTEQDSKDSTYSLSSTLTLSKADYEKHKVYACEVTHQGLSSPVTKSFNRGEC","60.4 relative, control = 100","38.5 relative, control = 100",1.57
"GpH7-A5/GpH7-B3 variant E333_11K/GpL16-k0 (antibody, human IgG1, kappa, He Ab: mutation in the GpH7-B3 H chain only) heavy 1: not shown heavy 2: not shown light: DIVMTQSPLSLPVTPGEPASISCQASESLVHSNRNTYLHWYLQKPGQSPQLLIYKVSNRFSGVPDRFSGSGSGTDFTLKISRVEAEDVGVYYCSQNTHVPPTFGQGTKVEIERTVAAPSVFIFPPSDEQLKSGTASVVCLLNNFYPREAKVQWKVDNALQSGNSQESVTEQDSKDSTYSLSSTLTLSKADYEKHKVYACEVTHQGLSSPVTKSFNRGEC","98.1 relative, control = 100","80.6 relative, control = 100",1.22
"GpH7-A5/GpH7-B3 variant E333_18N/GpL16-k0 (antibody, human IgG1, kappa, He Ab: mutation in the GpH7-B3 H chain only) heavy 1: not shown heavy 2: not shown light: DIVMTQSPLSLPVTPGEPASISCQASESLVHSNRNTYLHWYLQKPGQSPQLLIYKVSNRFSGVPDRFSGSGSGTDFTLKISRVEAEDVGVYYCSQNTHVPPTFGQGTKVEIERTVAAPSVFIFPPSDEQLKSGTASVVCLLNNFYPREAKVQWKVDNALQSGNSQESVTEQDSKDSTYSLSSTLTLSKADYEKHKVYACEVTHQGLSSPVTKSFNRGEC","96.2 relative, control = 100","76.1 relative, control = 100",1.26
"GpH7-A5/GpH7-B3 variant N325_11K/GpL16-k0 (antibody, human IgG1, kappa, He Ab: mutation in the GpH7-B3 H chain only) heavy 1: not shown heavy 2: not shown light: DIVMTQSPLSLPVTPGEPASISCQASESLVHSNRNTYLHWYLQKPGQSPQLLIYKVSNRFSGVPDRFSGSGSGTDFTLKISRVEAEDVGVYYCSQNTHVPPTFGQGTKVEIERTVAAPSVFIFPPSDEQLKSGTASVVCLLNNFYPREAKVQWKVDNALQSGNSQESVTEQDSKDSTYSLSSTLTLSKADYEKHKVYACEVTHQGLSSPVTKSFNRGEC","16.1 relative, control = 100","10.4 relative, control = 100",1.55
"GpH7-A5/GpH7-B3 variant P329_04F/GpL16-k0 (antibody, human IgG1, kappa, He Ab: mutation in the GpH7-B3 H chain only) heavy 1: not shown heavy 2: not shown light: DIVMTQSPLSLPVTPGEPASISCQASESLVHSNRNTYLHWYLQKPGQSPQLLIYKVSNRFSGVPDRFSGSGSGTDFTLKISRVEAEDVGVYYCSQNTHVPPTFGQGTKVEIERTVAAPSVFIFPPSDEQLKSGTASVVCLLNNFYPREAKVQWKVDNALQSGNSQESVTEQDSKDSTYSLSSTLTLSKADYEKHKVYACEVTHQGLSSPVTKSFNRGEC","44.5 relative, control = 100","32.2 relative, control = 100",1.38

# Second part, the binder after the results:
He/Con_2aH (FcγRIIa H [1]),He/Con_2b (FcγRIIb),He_2aH/2b (IIaH/IIb) (FcγRIIa H [2]) [ratio],Binder
"105 relative, control = 100","80.7 relative, control = 100",1.3,"GpH7-A5/GpH7-B3 variant I332_03V/GpL16-k0 (antibody, human IgG1, kappa, He Ab: mutation in the GpH7-B3 H chain only) heavy 1: not shown heavy 2: not shown light: DIVMTQSPLSLPVTPGEPASISCQASESLVHSNRNTYLHWYLQKPGQSPQLLIYKVSNRFSGVPDRFSGSGSGTDFTLKISRVEAEDVGVYYCSQNTHVPPTFGQGTKVEIERTVAAPSVFIFPPSDEQLKSGTASVVCLLNNFYPREAKVQWKVDNALQSGNSQESVTEQDSKDSTYSLSSTLTLSKADYEKHKVYACEVTHQGLSSPVTKSFNRGEC"
"65.7 relative, control = 100","40.5 relative, control = 100",1.62,"GpH7-A5/GpH7-B3 variant P329_02A/GpL16-k0 (antibody, human IgG1, kappa, He Ab: mutation in the GpH7-B3 H chain only) heavy 1: not shown heavy 2: not shown light: DIVMTQSPLSLPVTPGEPASISCQASESLVHSNRNTYLHWYLQKPGQSPQLLIYKVSNRFSGVPDRFSGSGSGTDFTLKISRVEAEDVGVYYCSQNTHVPPTFGQGTKVEIERTVAAPSVFIFPPSDEQLKSGTASVVCLLNNFYPREAKVQWKVDNALQSGNSQESVTEQDSKDSTYSLSSTLTLSKADYEKHKVYACEVTHQGLSSPVTKSFNRGEC"
"87.8 relative, control = 100","48.9 relative, control = 100",1.8,"GpH7-A5/GpH7-B3 variant I332_12R/GpL16-k0 (antibody, human IgG1, kappa, He Ab: mutation in the GpH7-B3 H chain only) heavy 1: not shown heavy 2: not shown light: DIVMTQSPLSLPVTPGEPASISCQASESLVHSNRNTYLHWYLQKPGQSPQLLIYKVSNRFSGVPDRFSGSGSGTDFTLKISRVEAEDVGVYYCSQNTHVPPTFGQGTKVEIERTVAAPSVFIFPPSDEQLKSGTASVVCLLNNFYPREAKVQWKVDNALQSGNSQESVTEQDSKDSTYSLSSTLTLSKADYEKHKVYACEVTHQGLSSPVTKSFNRGEC"
"97.7 relative, control = 100","81.4 relative, control = 100",1.2,"GpH7-A5/GpH7-B3 variant E333_01G/GpL16-k0 (antibody, human IgG1, kappa, He Ab: mutation in the GpH7-B3 H chain only) heavy 1: not shown heavy 2: not shown light: DIVMTQSPLSLPVTPGEPASISCQASESLVHSNRNTYLHWYLQKPGQSPQLLIYKVSNRFSGVPDRFSGSGSGTDFTLKISRVEAEDVGVYYCSQNTHVPPTFGQGTKVEIERTVAAPSVFIFPPSDEQLKSGTASVVCLLNNFYPREAKVQWKVDNALQSGNSQESVTEQDSKDSTYSLSSTLTLSKADYEKHKVYACEVTHQGLSSPVTKSFNRGEC"
"110 relative, control = 100","89.9 relative, control = 100",1.22,"GpH7-A5/GpH7-B3 variant I332_18N/GpL16-k0 (antibody, human IgG1, kappa, He Ab: mutation in the GpH7-B3 H chain only) heavy 1: not shown heavy 2: not shown light: DIVMTQSPLSLPVTPGEPASISCQASESLVHSNRNTYLHWYLQKPGQSPQLLIYKVSNRFSGVPDRFSGSGSGTDFTLKISRVEAEDVGVYYCSQNTHVPPTFGQGTKVEIERTVAAPSVFIFPPSDEQLKSGTASVVCLLNNFYPREAKVQWKVDNALQSGNSQESVTEQDSKDSTYSLSSTLTLSKADYEKHKVYACEVTHQGLSSPVTKSFNRGEC"
"29.9 relative, control = 100","19.1 relative, control = 100",1.56,"GpH7-A5/GpH7-B3 variant N325_12R/GpL16-k0 (antibody, human IgG1, kappa, He Ab: mutation in the GpH7-B3 H chain only) heavy 1: not shown heavy 2: not shown light: DIVMTQSPLSLPVTPGEPASISCQASESLVHSNRNTYLHWYLQKPGQSPQLLIYKVSNRFSGVPDRFSGSGSGTDFTLKISRVEAEDVGVYYCSQNTHVPPTFGQGTKVEIERTVAAPSVFIFPPSDEQLKSGTASVVCLLNNFYPREAKVQWKVDNALQSGNSQESVTEQDSKDSTYSLSSTLTLSKADYEKHKVYACEVTHQGLSSPVTKSFNRGEC"
"101 relative, control = 100","81.8 relative, control = 100",1.23,"GpH7-A5/GpH7-B3 variant E333_13S/GpL16-k0 (antibody, human IgG1, kappa, He Ab: mutation in the GpH7-B3 H chain only) heavy 1: not shown heavy 2: not shown light: DIVMTQSPLSLPVTPGEPASISCQASESLVHSNRNTYLHWYLQKPGQSPQLLIYKVSNRFSGVPDRFSGSGSGTDFTLKISRVEAEDVGVYYCSQNTHVPPTFGQGTKVEIERTVAAPSVFIFPPSDEQLKSGTASVVCLLNNFYPREAKVQWKVDNALQSGNSQESVTEQDSKDSTYSLSSTLTLSKADYEKHKVYACEVTHQGLSSPVTKSFNRGEC"
"73.7 relative, control = 100","58.2 relative, control = 100",1.27,"GpH7-A5/GpH7-B3 variant I336_19Q/GpL16-k0 (antibody, human IgG1, kappa, He Ab: mutation in the GpH7-B3 H chain only) heavy 1: not shown heavy 2: not shown light: DIVMTQSPLSLPVTPGEPASISCQASESLVHSNRNTYLHWYLQKPGQSPQLLIYKVSNRFSGVPDRFSGSGSGTDFTLKISRVEAEDVGVYYCSQNTHVPPTFGQGTKVEIERTVAAPSVFIFPPSDEQLKSGTASVVCLLNNFYPREAKVQWKVDNALQSGNSQESVTEQDSKDSTYSLSSTLTLSKADYEKHKVYACEVTHQGLSSPVTKSFNRGEC"
